Reference: patent publication US20240084039A1
Residue numbers refer to the chain shown, from its start. One block for each binder: values may come before it.

Legend:
[1] = target: pre-existing anti-drug antibodies (ADA) present in human sera; experiment: ELISA pre-existing ADA binding assay, confirmatory setup, test molecule coated, 20 human sera
[2] = target: pre-existing anti-drug antibodies (ADA) present in human sera; experiment: ELISA pre-existing ADA binding assay, confirmatory setup, test molecule coated, 20 human sera (second row for PRO2230)
[3] = target: pre-existing anti-drug antibodies (ADA) present in human sera; experiment: ELISA pre-existing ADA binding assay, confirmatory setup, test molecule coated, 40 human sera
[4] = target: pre-existing anti-drug antibodies (ADA) present in human sera; experiment: ELISA pre-existing ADA binding assay, confirmatory setup, test molecule coated, 20 human sera (second row for PRO1922)

% positives of total tested serum samples [1]: 90%
No of positive serum samples above 30% CCP (serum samples) [1]: 18
% positives of total tested serum samples [2]: 76%
No of positive serum samples above 30% CCP (serum samples) [2]: 15
B1: PRO2230 (scFv)
scFv: DIQMTQSPASLSASVGDRVTITCQASQSIGTYLAWYQQKPGKPPKLLIYRAFILASGVPSRFSGSGSGTDFTLTISSLQPEDFATYYCQSNFYSDSTTIGPNAFGTGTKVTVLGGGGGSGGGGSGGGGSGGGGSEVQLVESGGGLVQPGGSLRLSCAASGFSFNSDYWIYWVRQAPGKGLEWIASIYGGSSGNTQYASWAQGRFTISRDNSKNTVYLQMNSLRAEDTAVYFCARGYVDYGGATDLWGQGTLVTVSS

% positives of total tested serum samples [3]: 25%
No of positive serum samples above 31.56% CCP (serum samples) [3]: 10
B2: PRO2760 (protein)
chain: DIQMTQSPASLSASVGDRVTITCQASQSIGTYLAWYQQKPGKPPKLLIYRAFILASGVPSRFSGSGSGTDFTLTISSLQPEDFATYYCQSNFYSDSTTIGPNAFGTGTKVTVLGGGGGSEVQLVESGGGRVQPGGSLRLSCAASGFSFSANYYPCWVRQAPGKGLEWIGCIYGGSSDITYDAQWTKGRFTISRDNSKNTVYLQMNSLRAEDTATYYCARSAWYSGWGGDLWGQGTQVTVSSGGGGSGGGGSGGGGSGGGGSIQMTQSPSSLSASVGDRVTITCQASQSISNRLAWYQQKPGKAPKLLIYSASTLASGVPSRFSGSGSGTDFTLTISSLQPEDFATYYCQSTYYGNDGNAFGTGTKVTVLGGGGGSEVQLVESGGGLVQPGGSLRLSCAASGFSFNSDYWIYWVRQAPGKGLEWIASIYGGSSGNTQYASWAQGRFTISRDNSKNTVYLQMNSLRAEDTAVYFCARGYVDYGGATDLWGQGTLVTVSSGGGGSGGGGSIQMTQSPSSLSASVGDRVTITCQSSESVYSNNQLSWYQQKPGQPPKLLIYDASDLASGVPSRFSGSGSGTDFTLTISSLQPEDFATYYCAGGFSSSSDTAFGGGTKLTVLGGGGGSGGGGSGGGGSGGGGSEVQLVESGGGLVQPGGSLRLSCAASGFSLSSNAMGWVRQAPGKGLEYIGIISVGGFTYYASWAKGRFTISRDNSKNTVYLQMNSLRAEDTATYFCARDRHGGDSSGAFYLWGQGTLVTVSS

% positives of total tested serum samples [3]: 7.5%
No of positive serum samples above 31.56% CCP (serum samples) [3]: 3
B3: PRO2762 (protein)
chain: B2 chain with T106C, L386R, G420C, V470T, L492Q, L649R, L754Q

% positives of total tested serum samples [3]: 2.5%
No of positive serum samples above 31.56% CCP (serum samples) [3]: 1
B4: PRO2764 (protein)
chain: B2 chain with T106C, Q183N, L386R, G420C, V470T, L492Q, L649R, L754Q

% positives of total tested serum samples [3]: 2.5%
No of positive serum samples above 31.56% CCP (serum samples) [3]: 1
B5: PRO2763 (protein)
chain: B2 chain with T106C, L386R, G420C, V470T, L492Q, G610C, L649R, G682C, L754Q

% positives of total tested serum samples [3]: 2.5%
No of positive serum samples above 31.56% CCP (serum samples) [3]: 1
B6: PRO2765 (protein)
chain: B2 chain with T106C, Q183N, L386R, G420C, V470T, L492Q, G610C, L649R, G682C, L754Q

% positives of total tested serum samples [3]: 7.5%
No of positive serum samples above 31.56% CCP (serum samples) [3]: 3
B7: PRO2761 (protein)
chain: B2 chain with R130L, T214V, Q236L, L649R, L754Q

% positives of total tested serum samples [1]: 80%
No of positive serum samples above 30% CCP (serum samples) [1]: 16
% positives of total tested serum samples [4]: 80%
No of positive serum samples above 30% CCP (serum samples) [4]: 16
B8: PRO1922 (scFv)
scFv: DIQMTQSPSSLSASVGDRVTITCQASESIYSSLAWYQQKPGKAPKLLIYLASTLASGVPSRFSGSGSGTDFTLTISSLQPEDFATYYCQSTDYTTSTHRNSFGTGTKVTVLGGGGGSGGGGSGGGGSGGGGSEVQLVESGGGLVQPGGSLRLSCAASGFSFSTTYYMCWVRQAPGKGLEWIGCTNTASSVRTYYATWAKGRFTISRDNSKNTVYLQMNSLRAEDTAVYYCARDMGFADYALNLWGQGTLVTVSS
